Measured values taken from patent publication US20160290995A1, “METHODS OF SELECTING AKT AGONISTS OR ANTAGONISTS” (OREGON HEALTH & SCIENCE UNIVERSITY, priority 2015, published 2016).

Biological target: PDGF-α receptor, endogenous on C3H10T1/2 mouse embryonic fibroblasts (mouse) (UniProt P26618)
Experiment: cell-based or functional assay

PDGF-α receptor, endogenous on C3H10T1/2 mouse embryonic fibroblasts (mouse), sequence (P26618 25-1089): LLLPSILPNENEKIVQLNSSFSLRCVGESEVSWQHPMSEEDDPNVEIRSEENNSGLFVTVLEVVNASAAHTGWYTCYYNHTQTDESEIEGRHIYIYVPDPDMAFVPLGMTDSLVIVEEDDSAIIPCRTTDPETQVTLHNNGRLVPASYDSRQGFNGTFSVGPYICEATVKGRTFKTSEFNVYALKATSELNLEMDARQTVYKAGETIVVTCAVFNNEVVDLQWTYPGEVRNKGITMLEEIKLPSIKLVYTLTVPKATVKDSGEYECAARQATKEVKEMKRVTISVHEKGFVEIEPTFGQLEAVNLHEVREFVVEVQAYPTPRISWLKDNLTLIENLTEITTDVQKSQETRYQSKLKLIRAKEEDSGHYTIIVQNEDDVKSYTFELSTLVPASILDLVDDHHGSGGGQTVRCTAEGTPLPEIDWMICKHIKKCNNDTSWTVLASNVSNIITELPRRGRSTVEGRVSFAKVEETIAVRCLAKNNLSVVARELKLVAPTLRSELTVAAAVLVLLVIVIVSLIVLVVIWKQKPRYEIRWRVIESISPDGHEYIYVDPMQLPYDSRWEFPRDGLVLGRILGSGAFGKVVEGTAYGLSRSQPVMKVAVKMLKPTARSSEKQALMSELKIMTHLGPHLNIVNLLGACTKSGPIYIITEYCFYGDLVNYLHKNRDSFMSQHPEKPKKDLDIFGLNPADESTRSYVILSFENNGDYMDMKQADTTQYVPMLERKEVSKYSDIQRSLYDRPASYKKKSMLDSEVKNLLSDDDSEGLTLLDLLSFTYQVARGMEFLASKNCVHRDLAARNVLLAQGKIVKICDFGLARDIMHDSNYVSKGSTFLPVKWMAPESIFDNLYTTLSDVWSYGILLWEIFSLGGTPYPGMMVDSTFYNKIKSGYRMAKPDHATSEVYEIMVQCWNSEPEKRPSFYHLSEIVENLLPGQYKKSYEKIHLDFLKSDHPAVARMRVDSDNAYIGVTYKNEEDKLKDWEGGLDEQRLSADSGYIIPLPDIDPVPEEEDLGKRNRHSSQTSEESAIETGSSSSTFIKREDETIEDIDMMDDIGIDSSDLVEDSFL

Q: With “neutralizing antibody to the PDGF-α receptor (#AF1062, R&D Systems)” as the substance, how does the decrease in responses to sub-maximal concentrations of PDGF-BB (relative nuclear intensity of the FoxO1-clover reporter in C3H10T1/2 cells) read?
A: Its decrease in responses to sub-maximal concentrations of PDGF-BB (relative nuclear intensity of the FoxO1-clover reporter in C3H10T1/2 cells) is 10%.
